In this assay the target is PAK I of frog (Lepidobatrachus laevis) oocytes, zygotes and embryos (frog (Lepidobatrachus laevis)). In words: cell-based or functional assay.

The substance “GST-Cdc42Hs preloaded with GTPγS (from UniProt P60953 1-191)” showed a degree of activation of inactive PAK I in DEAE-cellulose fractions (H4 phosphorylation) of 6 to 7 fold.
